The text below walks through data of US20240352132A1 (JIANGSU HENGRUI PHARMACEUTICALS, published 2024).

The target of assay [1] is T1, HGFR protein extracellular domain with the His tag (human, UniProt P08581 25-932).
T1 construct: also called HGFR-His; human HGFR
As to the kind of experiment: SPR Biacore T200. As to the method:
(§1) The affinity of the test molecule for human EGFR (SEQ ID NO: 42) or human HGFR protein (SEQ ID NO: 43) was determined by Biacore T200 (GE) as follows:
(§2) The antibody molecules were affinity-captured on a Protein A biosensor chip of which antigens flowed through the surface for 180 s, and then the antibody molecules were dissociated for 600 s. The reaction signals were detected in real time using a Biacore T200 instrument to obtain association and dissociation curves. After dissociation was completed for each cycle, the biosensor chip was washed with 10 mM Gly-HCl (pH 1.5) for regeneration. Data were fitted using a 1:1 model, and affinity values of the test molecules were obtained. In this example, the positive control MCLA was a bispecific antibody specifically binding to HGFR and EGFR (see PB8532 in WO2019031965 for specific sequences).
(In general: SPR reads the build-up and loss of mass on a sensor chip optically.)

Assay [2] has as its target T1, HGFR protein extracellular domain with …. Briefly: SPR Biacore T200, antibody captured on Protein A, antigen in flow, 1:1 fit. As to the method: as §1, §2
Assay [3] has the same target. Briefly: flow cytometry on HGFR CHO-S stably transfected cells, R-PE goat anti-human (H+L) detection. From the text:
(§3) The binding activity of antigen-binding molecules specifically binding to HGFR and EGFR to cells was detected using a flow cytometer. EGFR CHO-S stably transfected cell strain, HGFR CHO-S stably transfected cell strain, and H1975-HGF or MKN-45 tumor cell strain at 1×10⁶ cells/mL were blocked with 1% BSA PBS buffer, followed by the addition of diluted antibody samples at different concentrations (C25 was a negative control, which was an IgGI antibody protein of irrelevant targets, the same applied hereinafter), and the mixtures were incubated for 1 h. After the mixtures were washed twice, R-PE-goat anti-human (H+L) antibody (Invitrogen, CAT #H10104) was added, and the mixtures were incubated for 0.5 h. After the plate was washed twice, fluorescence signals were read using a flow cytometer.
Background: Flow cytometry measures light scatter and fluorescence of single cells or particles in a stream.

Assay [4] addresses T2, human EGFR protein extracellular domain with the His tag (human, UniProt P00533 25-645).
T2 construct: also called EGFR-His
Briefly: competition ELISA, blocks EGF-mFc on captured EGFR-His. As for the experimental part:
1 μg/mL rabbit anti-His antibody (GenScript, A01857) was coated overnight at 4° C. and then blocked. After the plate was washed, 2 μg/mL EGFR-His (SEQ ID NO: 42) was added, and the plate was incubated for 1 h. […] After the plate was washed, a tetramethylbenzidine solution was added for color development. Finally, a stop solution was added. OD450 values were measured on a microplate reader.
On the technique in general: An ELISA detects its analyte on a solid surface through an enzyme-linked reagent.

Assay [5] has as its target T1, HGFR protein extracellular domain with …. As to the kind of experiment: competition ELISA, blocks bio-HGF-His on coated HGFR-His. As for the experimental part:
The ability of the antibodies to block HGF/HGFR was tested by ELISA. 5 μg/mL HGFR-His (for the sequence, see SEQ ID NO: 43) was coated overnight at 4° C. and then blocked. […] After the plate was washed, horseradish peroxidase-streptavidin (Jackson, 016-030-084) was added, and the plate was incubated for 1 h. After the plate was washed, a tetramethylbenzidine solution was added for color development. Finally, a stop solution was added. OD450 values were measured on a microplate reader.

Assay [6] concerns the target T2, human EGFR protein extracellular domain …. As to the kind of experiment: SPR Biacore T200, antibody captured on Protein A, antigen in flow, 1:1 fit. As to the method: as §1, §2
Assay [7] shares this target. As to the kind of experiment: flow cytometry on EGFR CHO-S stably transfected cells, R-PE goat anti-human (H+L) detection.
Description: as §3

The Kd is the free concentration of one partner at which half of the binding sites on the other are occupied at equilibrium, for simple one-to-one binding. Read a low Kd as tighter binding. By koff is commonly meant a measure of how fast the partners let go of each other. One may read the kon as a measure of how fast the partners come together. Low readings indicate slow association, high ones fast association. As usually defined, the EC50 (read off the curve) is the concentration that produces a half-maximal response. Low values mean a more potent agent, high ones a less potent agent. A word on the IC50: it is the concentration at which inhibition is half-maximal. Low readings indicate greater potency in that assay, high ones weaker potency in that assay.

B1: Ab10.1 (antibody, V domains shown)
VH: QVQLVESGGGVVQPGRSLRLSCAASGFSLSDYGVHWVRQAPGKGLEWLAVIWSGGSTNYADAFVSRLTISKDNSKNTVYLQMNSLRAEDTAVYYCARNHDNPYIYAMDYWGQGTTVTVSS
VL: DIVLTQSPDSLAVSLGERATINCRADKSVSTSTYNYLHWYQQKPGQPPKLLIYRGSFLATGVPDRFSGSGSGTDFTLTISSLQAEDVAVYYCQHSRDLPPTFGQGTKLEIK
notes: CDR mutant of Ab10
Consider B1, for which the “fold affinity against Ab10” value in assay [1] is ≥ 4 fold. In assay [2], the affinity, expressed as Kd, was 7.56 nM; the koff came out at 0.000309 s⁻¹; the kon is 40800 M⁻¹ s⁻¹. Besides, in assay [3], the “EC50 (read off the curve)” value is ~0.5 nM.

B2: EM1 (bispecific antibody, human IgG1, kappa)
heavy 1: not shown
light 1: DIQLTQSPSSLSASVGDRVTITCRASQDISSALVWYQQKPGKAPKLLIYDASSLESGVPSRFSGSESGTDFTLTISSLQPEDFATYYCQQFNSYPLTFGGGTKVEIKGGGGSGGGGDIVLTQSPDSLAVSLGERATINCRADKSVSTSTYNYLHWYQQKPGQPPKLLIYRGSFLATGVPDRFSGSGSGTDFTLTISSLQAEDVAVYYCQHSRDLPPTFGQGTKLEIKRTVAAPSVFIFPPSDEQLKSGTASVVCLLNNFYPREAKVQWKVDNALQSGNSQESVTEQDSKDSTYSLSSTLTLSKADYEKHKVYACEVTHQGLSSPVTKSFNRGEC
heavy 2: EVQLVESGGGLVQPGGSLRLSCAASGYTFTSYWLHWVRQAPGKGLEWVGMIDPSNSDTRFNPNFKDRFTISADTSKNTAYLQMNSLRAEDTAVYYCATYRSYVTPLDYWGQGTLVTVSSGGGGSGIPPKIECLPIDISIDEGKVLTVASAFTGEPTPEVTWSTGGRKIHSQEQGRFHIENTDDSTTLTIKDVQKQDGGLYTLTLRNEFGSDSATVNIHIRSIDKTHTCPPCPAPELLGGPSVFLFPPKPKDTLMISRTPEVTCVVVDVSHEDPEVKFNWYVDGVEVHNAKTKPREEQYNSTYRVVSVLTVLHQDWLNGKEYKCKVSNKALPAPIEKTISKAKGQPREPQVCTLPPSREEMTKNQVSLSCAVKGFYPSDIAVEWESNGQPENNYKTTPPVLDSDGSFFLVSKLTVDKSRWQQGNVFSCSVMHEALHNHYTQKSLSLSPGK
light 2: DIQMTQSPSSLSASVGDRVTITCKSSQSLLYTSSQKNYLAWYQQKPGKAPKLLIYWASTRESGVPSRFSGSGSGTDFTLTISSLQPEDFATYYCQQYYAYPWTFGQGTKVEIKGGGGSSGAPRFLTRPKASVVSVGKDATLSCQIVGNPFPQVSWEKDKQPVTAGVRFRLAQDGDLYRLKILDLQLSDSGQYVCRARNAHGEAFACLGLQVDAEA
notes: Format 1: Zal.1 Fv on Ab10.1 Fab (knob) plus Omab Titin/Obscurin-substituted Fab (hole); four chains
B2 showed an IC50 in assay [4] of 2.37 µg/mL. Besides, the IC50 in assay [5] came out at 0.25 µg/mL. In assay [6], this molecule displayed a Kd of 7.29 nM, a koff of 0.00103 s⁻¹ and a kon of 142000 M⁻¹ s⁻¹. Also, in assay [2], binding was put at a Kd of 2.26 nM, the koff stood at 0.000124 s⁻¹ and the kon was found to be 54800 M⁻¹ s⁻¹. In addition, in assay [7], the “EC50 (read off the curve)” value is ~2 nM.

B3: Omab (antibody, V domains shown)
VH: EVQLVESGGGLVQPGGSLRLSCAASGYTFTSYWLHWVRQAPGKGLEWVGMIDPSNSDTRFNPNFKDRFTISADTSKNTAYLQMNSLRAEDTAVYYCATYRSYVTPLDYWGQGTLVTVSS
VL: DIQMTQSPSSLSASVGDRVTITCKSSQSLLYTSSQKNYLAWYQQKPGKAPKLLIYWASTRESGVPSRFSGSGSGTDFTLTISSLQPEDFATYYCQQYYAYPWTFGQGTKVEIK
notes: anti-HGFR antibody (WO2013003680A1); also called onartuzumab
For B3, the “EC50 (read off the curve)” value in assay [3] was ~0.4 nM.

B4: EM2 (bispecific antibody, human IgG1, kappa)
heavy 1: not shown
light 1: DIQMTQSPSSLSASVGDRVTITCKSSQSLLYTSSQKNYLAWYQQKPGKAPKLLIYWASTRESGVPSRFSGSGSGTDFTLTISSLQPEDFATYYCQQYYAYPWTFGQGTKVEIKRTVAAPSVFIFPPSDEQLKSGTASVVCLLNNFYPREAKVQWKVDNALQSGNSQESVTEQDSKDSTYSLSSTLTLSKADYEKHKVYACEVTHQGLSSPVTKSFNRGEC
heavy 2: QVQLVESGGGVVQPGRSLRLSCAASGFTFSTYGMHWVRQAPGKGLEWVAVIWDDGSYKYYGDSVKGRFTISRDNSKNTLYLQMNSLRAEDTAVYYCARDGITMVRGVMKDYFDYWGQGTLVTVSSGGGGSGIPPKIECLPIDISIDEGKVLTVASAFTGEPTPEVTWSTGGRKIHSQEQGRFHIENTDDSTTLTIKDVQKQDGGLYTLTLRNEFGSDSATVNIHIRSIDKTHTCPPCPAPELLGGPSVFLFPPKPKDTLMISRTPEVTCVVVDVSHEDPEVKFNWYVDGVEVHNAKTKPREEQYNSTYRVVSVLTVLHQDWLNGKEYKCKVSNKALPAPIEKTISKAKGQPREPQVCTLPPSREEMTKNQVSLSCAVKGFYPSDIAVEWESNGQPENNYKTTPPVLDSDGSFFLVSKLTVDKSRWQQGNVFSCSVMHEALHNHYTQKSLSLSPGK
light 2: DIQLTQSPSSLSASVGDRVTITCRASQDISSALVWYQQKPGKAPKLLIYDASSLESGVPSRFSGSESGTDFTLTISSLQPEDFATYYCQQFNSYPLTFGGGTKVEIKGGGGSSGAPRFLTRPKASVVSVGKDATLSCQIVGNPFPQVSWEKDKQPVTAGVRFRLAQDGDLYRLKILDLQLSDSGQYVCRARNAHGEAFACLGLQVDAEA
notes: Format 2: Omab Fab (knob) plus Zal.1 Titin/Obscurin-substituted Fab (hole); four chains
B4 gave a Kd in assay [2] of 3.04 nM. In other words, the single-digit nanomolar range.
